Data: US20170305981A1 (UNIVERSITY OF CHICAGO, published 2017)
Each block holds one binder with its values, some of them ahead of it.

How the values were obtained:
[1] = molecular target: T1, hepatic lipase (HL) on hepatocyte (HepG2) cells (UniProt P11150 23-499, limits assumed); assay: cell-based or functional assay
T1 sequence (looked up): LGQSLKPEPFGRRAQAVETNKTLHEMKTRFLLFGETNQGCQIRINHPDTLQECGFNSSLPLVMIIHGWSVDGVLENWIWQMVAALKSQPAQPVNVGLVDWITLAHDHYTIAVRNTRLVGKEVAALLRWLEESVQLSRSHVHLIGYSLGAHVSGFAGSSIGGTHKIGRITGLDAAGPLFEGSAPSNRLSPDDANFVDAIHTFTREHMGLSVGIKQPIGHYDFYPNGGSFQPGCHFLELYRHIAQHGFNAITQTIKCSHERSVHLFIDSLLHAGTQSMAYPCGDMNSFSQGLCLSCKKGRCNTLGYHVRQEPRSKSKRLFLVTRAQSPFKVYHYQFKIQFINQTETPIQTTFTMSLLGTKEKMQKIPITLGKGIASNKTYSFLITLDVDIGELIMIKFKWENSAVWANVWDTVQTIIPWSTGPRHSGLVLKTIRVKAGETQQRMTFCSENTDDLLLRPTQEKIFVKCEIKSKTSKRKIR

[2] = molecular target: lipoprotein lipase (LpL), SIGMA; assay: cell-based or functional assay
Chain of lipoprotein lipase (LpL), SIGMA (P11151 29-478): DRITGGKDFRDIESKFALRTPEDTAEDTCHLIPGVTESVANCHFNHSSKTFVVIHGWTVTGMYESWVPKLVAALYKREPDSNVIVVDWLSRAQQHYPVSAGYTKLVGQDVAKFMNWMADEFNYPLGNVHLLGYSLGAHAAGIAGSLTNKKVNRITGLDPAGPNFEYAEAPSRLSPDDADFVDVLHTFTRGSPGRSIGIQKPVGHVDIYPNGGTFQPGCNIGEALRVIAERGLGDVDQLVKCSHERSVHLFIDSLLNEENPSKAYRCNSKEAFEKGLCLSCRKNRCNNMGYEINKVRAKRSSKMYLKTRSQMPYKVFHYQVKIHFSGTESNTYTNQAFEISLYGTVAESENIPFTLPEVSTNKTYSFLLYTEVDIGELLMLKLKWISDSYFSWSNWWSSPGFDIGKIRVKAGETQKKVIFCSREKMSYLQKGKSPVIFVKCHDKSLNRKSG

- hepatic lipase activity in cell culture [1]: ~3 fold
- hepatic lipase activity in live hepatocytes, 10 µM peptide [1]: ~2.8 fold
B1: AV199-237 (peptide)
peptide: ARLSRCVQVLSRKLTLKAKALHARIQQNLDQLREELSRA

- LpL activity in the absence of VLDL, 10 µM peptide [2]: ~1.6 fold
- LpL activity in the presence of VLDL, 10 µM peptide [2]: ~8 fold
- LpL activity in the presence of VLDL, relative to AV199-232 [2]: 44%
B2: AV-H/K (peptide)
peptide: ARLSRCVQVLSRKLTLKAKALKARIQQNLDQLRE

- lipase stimulating activity, peptide (80 µg/ml) preincubated with VLDL (20 µg/ml) [2]: ~2 fold
B3: AV-H/K-2F (peptide)
peptide: ARLSRCVQVFSRKLTLKAKALKARIQQNFDQLRE
